The source of these data is article PMC10995623, “Apple E3 ligase MdPUB23 mediates ubiquitin-dependent degradation of MdABI5 to delay ABA-triggered leaf senescence”.

For the data set, the target named is T1, MdABI5 (Malus domestica? (apple), UniProt A0A498IDK6 1-461).
T1 sequence: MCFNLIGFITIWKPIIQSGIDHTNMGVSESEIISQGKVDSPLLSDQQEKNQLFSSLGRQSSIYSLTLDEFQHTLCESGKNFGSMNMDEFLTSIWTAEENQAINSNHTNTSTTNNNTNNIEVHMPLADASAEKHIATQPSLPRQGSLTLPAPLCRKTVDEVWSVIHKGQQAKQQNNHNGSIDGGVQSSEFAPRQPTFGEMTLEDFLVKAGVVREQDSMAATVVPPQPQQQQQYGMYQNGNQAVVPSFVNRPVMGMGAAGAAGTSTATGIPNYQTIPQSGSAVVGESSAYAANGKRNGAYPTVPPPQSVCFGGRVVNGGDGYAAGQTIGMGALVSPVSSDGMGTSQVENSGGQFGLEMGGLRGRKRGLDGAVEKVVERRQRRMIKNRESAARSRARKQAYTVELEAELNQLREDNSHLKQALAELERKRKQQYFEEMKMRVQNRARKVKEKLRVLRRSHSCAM
Briefly: EMSA; MdABI5 alone; Beyotime EMSA/Gel-Shift Kit binding buffer (composition, salt and pH not given), 24 C, 30 min, biotin-labelled probe. Particulars: protein: recombinant; chain copies: 2; label: biotin; blunt. (In general: In EMSA bound probe runs differently from free probe, usually more slowly.)

B1: MdSAG18 promoter probe (dsDNA)
DNA 1: GGGGGGGGTCCACGTGGGTCACCAAC
DNA 2: GTTGGTGACCCACGTGGACCCCCCCC
Turning to B1, the binding result is reported as “no binding”.
